Data taken from patent US20210253733A1.

Assays:
[1] = target: human CD163 ECD with a C-terminal 8 histidine tag (HEK293-6E) (human) (UniProt Q86VB7); experiment: binding titration on recombinant huCD163 ECD
[2] = target: truncated human CD163 ECD SRCR domain 1-5 fragment with C-terminus histidine tag (HEK293-6E) (human) (UniProt Q86VB7); experiment: binding titration on truncated huCD163 SRCR 1-5
[3] = target: truncated human CD163 ECD SRCR domain 1-5 fragment with C-terminus histidine tag (HEK293-6E) (human) (UniProt Q86VB7); experiment: ratio of EC50 on huCD163 SRCR 1-5 to EC50 on huCD163 ECD
[4] = target: purified recombinant human CD163 protein used for SPR (human) (UniProt Q86VB7); experiment: SPR (Biacore T200), CD163 amine-coupled to chip, antibody as analyte, EDTA buffer
[5] = target: purified recombinant human CD163 protein used for SPR (human) (UniProt Q86VB7); experiment: SPR (Biacore T200), CD163 amine-coupled to chip, antibody as analyte, calcium-containing buffer
[6] = target: recombinant murine CD163 (R&D Systems, No. 7435-CD-050) (murine) (UniProt Q2VLH6); experiment: ELISA, plate coated with 5 ug/mL recombinant murine CD163, A450
[7] = target: His-tagged recombinant human CD163 (R&D Systems, No. 1607-CD-050) (human) (UniProt Q86VB7); experiment: ELISA, plate coated with 5 ug/mL His-tagged recombinant human CD163, HRP anti-mouse IgG F(ab')2, A450
[8] = target: human CD163 expressed on human myeloid cells (M2c macrophages, M2 macrophages, in vitro MDSCs) (human) (UniProt Q86VB7); experiment: flow cytometry, unconjugated anti-CD163 (MAB1607) with labelled secondary antibody on untreated M2c macrophages
[9] = target: human CD163 expressed on human myeloid cells (M2c macrophages, M2 macrophages, in vitro MDSCs) (human) (UniProt Q86VB7); experiment: flow cytometry, APC-labelled anti-huCD163 on M2c macrophages pre-treated with 200 ug/mL goat control polyclonal antibody

Chain of human CD163 ECD with a C-terminal 8 histidine tag (HEK293-6E) (human) (Q86VB7 other isoform, or with tags, fused parts or gaps limits assumed): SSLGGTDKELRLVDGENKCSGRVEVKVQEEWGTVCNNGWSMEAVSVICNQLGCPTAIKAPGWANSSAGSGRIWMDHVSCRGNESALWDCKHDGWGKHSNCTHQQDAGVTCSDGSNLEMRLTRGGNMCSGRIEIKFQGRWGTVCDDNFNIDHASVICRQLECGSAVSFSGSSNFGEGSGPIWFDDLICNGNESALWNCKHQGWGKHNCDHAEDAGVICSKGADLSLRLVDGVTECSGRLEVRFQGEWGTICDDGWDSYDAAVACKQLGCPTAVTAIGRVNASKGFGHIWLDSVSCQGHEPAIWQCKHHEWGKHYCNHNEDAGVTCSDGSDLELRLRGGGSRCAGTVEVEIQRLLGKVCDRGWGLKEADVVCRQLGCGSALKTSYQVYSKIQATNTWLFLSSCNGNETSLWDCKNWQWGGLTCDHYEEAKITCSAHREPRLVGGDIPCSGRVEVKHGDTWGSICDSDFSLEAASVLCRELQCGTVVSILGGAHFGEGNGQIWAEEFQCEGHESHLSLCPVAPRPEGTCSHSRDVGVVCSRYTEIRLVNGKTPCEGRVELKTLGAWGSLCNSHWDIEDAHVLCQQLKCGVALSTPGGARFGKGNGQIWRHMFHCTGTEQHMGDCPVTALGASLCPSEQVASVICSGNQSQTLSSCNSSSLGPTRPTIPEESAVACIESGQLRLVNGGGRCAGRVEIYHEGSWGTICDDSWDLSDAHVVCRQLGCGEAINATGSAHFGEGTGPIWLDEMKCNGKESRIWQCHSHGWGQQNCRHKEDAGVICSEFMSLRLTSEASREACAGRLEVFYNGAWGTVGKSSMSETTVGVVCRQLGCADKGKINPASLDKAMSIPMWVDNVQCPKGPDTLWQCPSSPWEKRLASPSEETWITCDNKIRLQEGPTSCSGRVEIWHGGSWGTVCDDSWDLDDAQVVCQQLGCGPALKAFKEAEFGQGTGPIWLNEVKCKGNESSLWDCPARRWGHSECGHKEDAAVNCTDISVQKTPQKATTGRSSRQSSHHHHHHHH
Chain of truncated human CD163 ECD SRCR domain 1-5 fragment with C-terminus histidine tag (HEK293-6E) (human) (Q86VB7 42-578 limits assumed): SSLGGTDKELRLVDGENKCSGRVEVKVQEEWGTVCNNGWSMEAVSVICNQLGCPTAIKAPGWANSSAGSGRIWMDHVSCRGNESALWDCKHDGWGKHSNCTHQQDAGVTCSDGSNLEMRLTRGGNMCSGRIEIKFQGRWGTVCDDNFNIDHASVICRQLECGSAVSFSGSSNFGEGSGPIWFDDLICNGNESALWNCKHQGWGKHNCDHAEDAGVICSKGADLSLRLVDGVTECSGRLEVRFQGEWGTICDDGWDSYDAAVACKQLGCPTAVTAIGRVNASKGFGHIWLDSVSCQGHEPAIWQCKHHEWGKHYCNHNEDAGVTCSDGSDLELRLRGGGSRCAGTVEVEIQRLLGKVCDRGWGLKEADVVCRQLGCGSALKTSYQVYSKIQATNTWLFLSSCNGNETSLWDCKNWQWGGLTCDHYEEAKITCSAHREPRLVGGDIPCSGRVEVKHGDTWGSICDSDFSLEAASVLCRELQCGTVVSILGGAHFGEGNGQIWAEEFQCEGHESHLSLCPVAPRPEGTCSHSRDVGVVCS
Chain of purified recombinant human CD163 protein used for SPR (human) (Q86VB7 46-1050 limits assumed): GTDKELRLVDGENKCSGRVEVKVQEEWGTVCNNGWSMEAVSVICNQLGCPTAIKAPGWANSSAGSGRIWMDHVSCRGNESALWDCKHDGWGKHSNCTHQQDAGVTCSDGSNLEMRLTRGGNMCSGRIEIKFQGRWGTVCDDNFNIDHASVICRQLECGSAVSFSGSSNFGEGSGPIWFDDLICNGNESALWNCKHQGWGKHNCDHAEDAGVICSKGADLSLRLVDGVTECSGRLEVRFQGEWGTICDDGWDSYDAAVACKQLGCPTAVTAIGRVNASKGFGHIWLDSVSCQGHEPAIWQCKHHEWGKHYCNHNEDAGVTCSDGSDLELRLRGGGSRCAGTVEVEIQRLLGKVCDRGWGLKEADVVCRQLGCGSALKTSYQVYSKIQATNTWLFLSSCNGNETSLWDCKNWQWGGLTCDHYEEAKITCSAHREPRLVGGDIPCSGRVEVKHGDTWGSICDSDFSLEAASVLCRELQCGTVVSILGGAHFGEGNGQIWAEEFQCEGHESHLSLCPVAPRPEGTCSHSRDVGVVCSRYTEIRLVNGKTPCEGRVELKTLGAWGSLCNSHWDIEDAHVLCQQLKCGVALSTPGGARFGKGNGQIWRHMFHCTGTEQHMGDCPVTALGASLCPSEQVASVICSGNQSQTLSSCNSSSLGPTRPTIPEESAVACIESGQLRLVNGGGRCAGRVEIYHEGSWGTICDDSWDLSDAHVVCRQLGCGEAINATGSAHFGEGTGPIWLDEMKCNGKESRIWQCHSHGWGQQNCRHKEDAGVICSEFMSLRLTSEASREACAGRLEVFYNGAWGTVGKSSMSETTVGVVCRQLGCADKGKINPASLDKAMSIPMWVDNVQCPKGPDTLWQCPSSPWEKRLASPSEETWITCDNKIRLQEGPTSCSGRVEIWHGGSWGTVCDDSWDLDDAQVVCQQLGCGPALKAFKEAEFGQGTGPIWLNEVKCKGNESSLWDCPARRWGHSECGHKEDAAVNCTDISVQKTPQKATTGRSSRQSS
Chain of human CD163 expressed on human myeloid cells (M2c macrophages, M2 macrophages, in vitro MDSCs) (human) (Q86VB7 42-1114, tags or fused parts left off): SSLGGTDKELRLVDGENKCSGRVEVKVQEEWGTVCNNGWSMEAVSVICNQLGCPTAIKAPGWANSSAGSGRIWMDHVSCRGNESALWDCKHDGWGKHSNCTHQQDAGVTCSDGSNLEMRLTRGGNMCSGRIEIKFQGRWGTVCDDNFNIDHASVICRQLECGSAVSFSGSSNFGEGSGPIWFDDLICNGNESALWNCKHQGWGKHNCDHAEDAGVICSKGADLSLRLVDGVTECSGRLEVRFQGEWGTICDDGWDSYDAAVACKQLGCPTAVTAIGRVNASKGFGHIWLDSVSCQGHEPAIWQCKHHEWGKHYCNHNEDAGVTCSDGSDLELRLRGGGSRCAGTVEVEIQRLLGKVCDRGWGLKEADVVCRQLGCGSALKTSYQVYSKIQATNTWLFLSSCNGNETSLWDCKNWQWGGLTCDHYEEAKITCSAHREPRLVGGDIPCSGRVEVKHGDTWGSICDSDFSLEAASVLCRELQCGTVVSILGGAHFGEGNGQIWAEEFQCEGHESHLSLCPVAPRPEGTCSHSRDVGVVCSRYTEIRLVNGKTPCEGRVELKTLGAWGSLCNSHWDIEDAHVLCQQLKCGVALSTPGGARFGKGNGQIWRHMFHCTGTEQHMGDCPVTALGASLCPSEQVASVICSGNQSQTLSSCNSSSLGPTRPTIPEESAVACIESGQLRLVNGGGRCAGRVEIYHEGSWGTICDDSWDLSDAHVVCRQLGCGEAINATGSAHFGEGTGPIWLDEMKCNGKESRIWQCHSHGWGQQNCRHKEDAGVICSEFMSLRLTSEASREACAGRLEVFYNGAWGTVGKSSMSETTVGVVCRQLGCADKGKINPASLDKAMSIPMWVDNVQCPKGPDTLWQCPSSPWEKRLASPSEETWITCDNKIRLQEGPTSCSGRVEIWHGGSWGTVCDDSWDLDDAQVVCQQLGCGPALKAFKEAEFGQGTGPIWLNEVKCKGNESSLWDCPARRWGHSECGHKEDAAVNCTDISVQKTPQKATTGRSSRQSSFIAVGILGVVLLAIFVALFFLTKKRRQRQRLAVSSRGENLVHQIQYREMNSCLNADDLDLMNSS
Chain of recombinant murine CD163 (R&D Systems, No. 7435-CD-050) (murine) (Q2VLH6 39-1045 limits assumed): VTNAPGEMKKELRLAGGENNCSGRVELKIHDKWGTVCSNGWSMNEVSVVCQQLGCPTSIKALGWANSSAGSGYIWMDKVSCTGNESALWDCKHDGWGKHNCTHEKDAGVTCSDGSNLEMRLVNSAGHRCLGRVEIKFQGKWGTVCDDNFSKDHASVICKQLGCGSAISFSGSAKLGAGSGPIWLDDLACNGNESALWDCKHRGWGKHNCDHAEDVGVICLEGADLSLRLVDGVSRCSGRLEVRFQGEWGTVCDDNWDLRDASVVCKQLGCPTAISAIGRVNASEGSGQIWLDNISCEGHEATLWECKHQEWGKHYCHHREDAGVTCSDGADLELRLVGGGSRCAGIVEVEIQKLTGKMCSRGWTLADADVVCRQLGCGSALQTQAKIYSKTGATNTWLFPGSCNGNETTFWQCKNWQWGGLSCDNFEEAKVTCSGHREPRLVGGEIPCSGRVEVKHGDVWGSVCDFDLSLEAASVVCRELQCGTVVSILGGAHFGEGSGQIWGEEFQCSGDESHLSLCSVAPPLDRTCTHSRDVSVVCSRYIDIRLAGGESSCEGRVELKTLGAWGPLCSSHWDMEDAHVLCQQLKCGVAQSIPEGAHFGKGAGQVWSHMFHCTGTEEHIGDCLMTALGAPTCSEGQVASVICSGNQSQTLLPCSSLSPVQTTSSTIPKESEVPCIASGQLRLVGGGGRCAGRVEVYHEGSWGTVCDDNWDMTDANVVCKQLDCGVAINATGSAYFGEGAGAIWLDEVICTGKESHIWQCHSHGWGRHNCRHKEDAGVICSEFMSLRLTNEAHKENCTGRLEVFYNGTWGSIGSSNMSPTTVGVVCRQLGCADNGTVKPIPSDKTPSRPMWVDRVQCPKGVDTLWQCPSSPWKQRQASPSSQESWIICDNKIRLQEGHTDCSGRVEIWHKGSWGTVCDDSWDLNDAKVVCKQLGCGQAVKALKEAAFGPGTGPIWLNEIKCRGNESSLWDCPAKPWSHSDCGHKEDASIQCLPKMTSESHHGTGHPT

Which EC50 [1] does the source give for RM3/1 (antibody) here?
Its EC50 is 0.061 nM.

How did the EC50 [1] turn out when 215927 (antibody) was run?
The EC50 was 0.017 nM.

What about the EC50 [2] of the same substance?
The EC50 was 0.02 nM.

And the Ratio SRCR 1-5/ECD (EC50) [3]?
The Ratio SRCR 1-5/ECD (EC50) was 1.17.

Which results are given for anti-CD163 clone GHI/61 (antibody)?
Kd [4]: 12 nM; koff [4]: 0.000178 s⁻¹; kon [4]: 14800 M⁻¹ s⁻¹; Kd [5]: 63 nM; koff [5]: 0.000467 s⁻¹; kon [5]: 7320 M⁻¹ s⁻¹

Which EC50 (read off the curve) [6] does the source give for “commercially available rat anti-muCD163 antibody (Thermo Fisher Scientific #14-1631-82)” here?
The EC50 (read off the curve) was 0.02 nM.

“control anti-huCD163 antibody, murine IgG1 (R&D Systems, #MAB1607)” was tested. Which EC50 (read off the curve) [7] did it give?
The EC50 (read off the curve) was 0.01 nM.

And the EC50 (read off the curve) [8]?
The EC50 (read off the curve) was 3 nM.

EDHu-1 (antibody) was tested. Which EC50 [1] did it give?
Its EC50 is 0.052 nM.

And the EC50 [2]?
The EC50 was 0.05 nM.

What about the Ratio SRCR 1-5/ECD (EC50) [3] of the same substance?
The Ratio SRCR 1-5/ECD (EC50) was 0.96.

With “APC-labeled anti-huCD163 antibody (R&D Systems, #FAB1607A)” as the substance, how does the EC50 (read off the curve) [9] read?
The EC50 (read off the curve) was 10 nM.
